Earlier results, collected in publication PMC5342242.
Like-named read-outs stand apart in the source and are kept apart here.

Legend:
[1] = molecular target: DNA polymerase III α subunit (Escherichia coli) (UniProt P10443); assay: tryptophan fluorescence
[2] = molecular target: DNA polymerase III α subunit 1-280 (Escherichia coli) (UniProt P10443); assay: tryptophan fluorescence
[3] = molecular target: DNA polymerase III α subunit 917-1160 (Escherichia coli) (UniProt P10443); assay: tryptophan fluorescence
Chain of DNA polymerase III α subunit 917-1160 (Escherichia coli) (P10443 917-1160): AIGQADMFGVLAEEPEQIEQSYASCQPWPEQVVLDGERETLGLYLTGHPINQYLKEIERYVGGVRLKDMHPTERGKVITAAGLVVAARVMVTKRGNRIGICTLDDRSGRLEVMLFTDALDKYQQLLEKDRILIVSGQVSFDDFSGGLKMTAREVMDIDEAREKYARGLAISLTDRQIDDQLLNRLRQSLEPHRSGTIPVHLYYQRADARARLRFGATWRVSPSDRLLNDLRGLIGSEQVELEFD

[4] = molecular target: DNA pol III alpha (Escherichia coli) (UniProt P10443)
Chain of DNA pol III alpha (Escherichia coli) (P10443 whole entry): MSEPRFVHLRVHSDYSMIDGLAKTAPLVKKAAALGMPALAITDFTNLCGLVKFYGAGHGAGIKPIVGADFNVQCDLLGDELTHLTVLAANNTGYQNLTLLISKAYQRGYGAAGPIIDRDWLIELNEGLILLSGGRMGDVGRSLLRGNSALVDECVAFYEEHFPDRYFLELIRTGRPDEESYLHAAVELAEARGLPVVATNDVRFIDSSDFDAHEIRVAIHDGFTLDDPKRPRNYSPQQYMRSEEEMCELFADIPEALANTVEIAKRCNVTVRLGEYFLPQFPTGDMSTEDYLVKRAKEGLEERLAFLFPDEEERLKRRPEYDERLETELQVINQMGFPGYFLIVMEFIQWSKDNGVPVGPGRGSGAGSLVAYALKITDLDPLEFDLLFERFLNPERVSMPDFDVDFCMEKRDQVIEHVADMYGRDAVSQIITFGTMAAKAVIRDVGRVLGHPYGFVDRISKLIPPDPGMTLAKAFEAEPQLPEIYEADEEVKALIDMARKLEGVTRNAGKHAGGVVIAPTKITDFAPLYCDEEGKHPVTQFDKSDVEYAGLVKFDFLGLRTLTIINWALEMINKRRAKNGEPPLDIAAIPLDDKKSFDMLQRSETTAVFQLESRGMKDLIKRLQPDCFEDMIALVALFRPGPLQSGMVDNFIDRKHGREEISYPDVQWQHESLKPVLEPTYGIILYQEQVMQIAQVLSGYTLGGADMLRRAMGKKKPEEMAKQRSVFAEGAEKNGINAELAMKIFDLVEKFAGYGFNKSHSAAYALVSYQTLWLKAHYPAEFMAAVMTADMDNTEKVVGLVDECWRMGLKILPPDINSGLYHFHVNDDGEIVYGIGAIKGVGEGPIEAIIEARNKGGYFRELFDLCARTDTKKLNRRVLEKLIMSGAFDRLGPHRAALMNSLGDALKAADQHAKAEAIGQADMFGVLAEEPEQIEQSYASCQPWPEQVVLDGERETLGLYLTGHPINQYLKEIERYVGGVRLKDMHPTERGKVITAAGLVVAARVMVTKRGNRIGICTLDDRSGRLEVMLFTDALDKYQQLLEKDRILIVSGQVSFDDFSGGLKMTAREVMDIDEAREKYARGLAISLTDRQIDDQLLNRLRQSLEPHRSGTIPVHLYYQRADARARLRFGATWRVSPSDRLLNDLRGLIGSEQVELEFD

[5] = molecular target: DNA pol III alpha 917-1160 (Escherichia coli) (UniProt P10443)
Chain of DNA pol III alpha 917-1160 (Escherichia coli) (P10443 917-1160): as the sequence (P10443 917-1160) above

[6] = molecular target: DNA pol III alpha 1-280 (Escherichia coli) (UniProt P10443)
Chain of DNA pol III alpha 1-280 (Escherichia coli) (P10443 1-280): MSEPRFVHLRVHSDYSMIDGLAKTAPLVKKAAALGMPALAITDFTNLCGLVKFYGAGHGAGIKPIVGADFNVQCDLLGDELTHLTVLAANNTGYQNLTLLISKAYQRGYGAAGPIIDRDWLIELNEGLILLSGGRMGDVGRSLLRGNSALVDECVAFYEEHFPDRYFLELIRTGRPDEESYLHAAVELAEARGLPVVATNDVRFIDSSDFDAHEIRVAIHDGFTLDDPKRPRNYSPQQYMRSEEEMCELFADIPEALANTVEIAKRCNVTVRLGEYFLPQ

[7] = molecular target: DNA pol III alpha 917-1160 (Escherichia coli) (UniProt P10443); remark: listed apart in the source

Chain of DNA polymerase III α subunit 1-280 (Escherichia coli) (P10443 1-280): as above
Chain of UmuD' (P0AG11 25-139): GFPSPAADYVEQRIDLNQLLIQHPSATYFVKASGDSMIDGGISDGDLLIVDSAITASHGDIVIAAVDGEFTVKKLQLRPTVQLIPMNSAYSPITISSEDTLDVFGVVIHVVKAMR
Chain of UmuD (P0AG11 25-139): as above
Chain of DNA polymerase III α subunit (Escherichia coli) (P10443 whole entry): as the sequence (P10443 whole entry) above

Row | Kd [1] [µM] | Kd [2] [µM] | Kd [3] [µM] | Kd [4] [µM] | Kd [5] [µM] | Kd [6] [µM] | Kd [7] [µM] | Substance
1 | 8.7 | 9.3 | 3.4 | – | – | – | – | UmuD 3A (from UniProt P0AG11)
2 | 10.6 | 10.3 | 0.7 | – | – | – | – | UmuD S60A (from UniProt P0AG11)
3 | – | – | – | 10.9 | 3.8 | 8.6 | – | UmuD' (from UniProt P0AG11)
4 | 1.1 | 7.3 | 13.9 | – | – | – | 0.7 | UmuD (from UniProt P0AG11)
